The record followed here is article PMC8345930, “Quaternary Structure and Hetero-Oligomerization of Recombinant Human Small Heat Shock Protein HspB7 (cvHsp)” (International Journal of Molecular Sciences, 2021).

B1: Δ13 mutant of HspB7 (lacking the first 13 residues) (domain or fragment)
chain: not shown
notes: HspB7 (cvHsp), human, lacking the first 13 residues; made by PCR from the pET23b(+) HspB7 plasmid (forward primer with an NdeI site, ATG before the codon of residue 14); The printed forward primer places a start codon (Met) directly before residue 14; source: E. coli Rosetta2 (DE3) pLysS, purified
B2: Cys-mutant of HspB8 (C10S/C99S/C195S/N138C) (natural protein, human, UniProt Q9UJY1 1-196, looked up)
chain: MADGQMPFSSHYPSRLRRDPFRDSPLSSRLLDDGFGMDPFPDDLTASWPDWALPRLSSAWPGTLRSGMVPRGPTATARFGVPAEGRTPPPFPGEPWKVSVNVHSFKPEELMVKTKDGYVEVSGKHEEKQQEGGIVSKCFTKKIQLPAEVDPVTVFASLSPEGLLIIEAPQVPPYSTFGESSFNNELPQDSQEVTST
notes: HspB8, human, with the four mutations C10S/C99S/C195S/N138C; single Cys in the β7 strand at the position homologous to Cys137 of HspB1; also called HspB8 Cys; HspB8 Cys^Ox
B3: recombinant human small heat shock protein HspB7 (cvHsp), wild type, untagged (natural protein)
chain: not shown
notes: HspB7 (cvHsp), human; full copy recloned from Addgene #63108 into pET23b(+) at NdeI and XhoI; single Cys126; calculated monomer weight 18.6 kDa; HspB7-D (small oligomers, probably dimers) and HspB7-L (mostly large oligomers) are two oligomeric preparations of the same construct; the assays tell them apart; also called cardiovascular Hsp; HspB7-D; source: E. coli Rosetta2 (DE3) pLysS, purified …
B4: ΔSer mutant of HspB7 (lacking the polySer sequence, residues 17–29) (natural protein)
chain: not shown
notes: source: E. coli Rosetta2 (DE3) pLysS, purified
B5: Cys-mutant of HspB6 (C46S/E116C) (natural protein, human, UniProt O14558 1-160, looked up)
chain: MEIPVPVQPSWLRRASAPLPGLSAPGRLFDQRFGEGLLEAELAALSPTTLAPYYLRAPSVALPVAQVPTDPGHFSVLLDVKHFSPEEIAVKVVGEHVEVHARHEERPDEHGFVARCFHRRYRLPPGVDPAAVTSALSPEGVLSIQAAPASAQAPPPAAAK
notes: HspB6, human, with the double mutation C46S/E116C; single Cys in the β7 strand at the position homologous to Cys137 of HspB1; also called HspB6 Cys; HspB6 Cys^Ox
B6: wild-type HspB6 (natural protein, human, UniProt O14558 1-160, looked up)
chain: B5 chain with S46C, C116E
notes: HspB6, human, full-size wild type; The abstract says that the wild-type HspB6 was used in the ELISA
B7: HspB7 with Cys126 modified by iodoacetamide (natural protein)
chain: not shown
modifications: Cys126 modified by iodoacetamide
notes: HspB7 (cvHsp), human; full copy from Addgene #63108 in pET23b(+); the single SH group (Cys126) modified by iodoacetamide; Same construct as m1, chemically modified at Cys126; also called SH Mod HspB7-L

Data set [1] concerns the molecule itself. Description: SEC; Δ13 and ΔSer deletion mutants of HspB7; analytical Superdex 200 Increase 10/30 GL, 50 mM phosphate pH 7.4, 150 mM NaCl. On the technique in general: In gel filtration, larger molecules generally elute earlier.
Data set [2] deals with the molecule itself. Description: cross-linking; disulfide cross-linking: reduced proteins alone or in equimolar mixture (15 µM each), 1 h at 42 °C, dialysed overnight at 37 °C against 50 mM Tris-HCl pH 8.0, 50 mM KCl, 0.1 mM PMSF; read by SDS-PAGE (HspB8) or urea gel electrophoresis (HspB6).
Data set [3] concerns the molecule itself. Description: SEC; HspB7-D preparation (flow-through of phenyl sepharose, Fraction 1); analytical Superdex 200 Increase 10/30 GL, 50 mM phosphate pH 7.4, 150 mM NaCl; 20, 50 or 100 μg loaded.
Data set [4] addresses B3. As to the kind of experiment: SEC; oxidised (disulfide cross-linked) proteins alone or in equimolar mixture on Superdex 200 Increase GL 10/300; profile of the mixture compared with the arithmetic sum of the isolated proteins. Particulars: both partners purified.
Data set [5] concerns the target B3. As to the kind of experiment: ELISA; sandwich: plate coated with monoclonal mouse anti-HspB6 antibody (clone 20-6) as capture; HspB6, HspB7 or their equimolar mixture added (25-400 ng of each protein per well), 1 h; HspB7 detected by rabbit polyclonal anti-HspB7 and HRP-conjugated anti-rabbit antibodies. Particulars: both partners purified.
Data set [6] concerns the molecule itself. Description: SEC; HspB7-L (0.6 mg/mL) reduced with 3 mM DTT, Cys126 modified with 8 mM iodoacetamide, then analytical SEC on Superdex 200 Increase.

Positions count from the first letter of the chain named. In names and notes the source's numbering stands.

Turning to B1, the binding result in data set [1] is recorded as “binds”. As to B2, the binding result in data set [2] was “binds”. The stoichiometry N is the number of molecules, sites or subunits per partner or assembly. For the molecule B3, in data set [3], the “stoichiometry N” value is about 2.

Consider B4, for which the binding result in data set [1] was “binds”. Turning to B5, the binding result in data set [2] and in data set [4] was “binds” in each case. B6: the binding result in data set [5] is on record as “binds”.

Turning to B7, the binding result in data set [6] is listed as “binds”.
